EC50 of cAMP production (HTRF) in CHO-K1 cells transiently expressing eel LH/CGR; ligand 0-1500 ng/mL, 30 min, room temperature data for two substances are collected here from article PMC11202772.

In this experiment the target is eel luteotropin/chorionic gonadotropin hormone receptor (eel LH/CGR) (eel).

“tethered eel LH mutant (tethered rec-eel LH-M) with the eLH/CG β-subunit CTP linker between the β-subunit and the α-subunit (from UniProt P08751 135-169) (ligand)” registered an EC50 of cAMP production (HTRF) in CHO-K1 cells transiently expressing eel LH/CGR; ligand 0-1500 ng/mL, 30 min, room temperature of 0.0478 µg/mL.

Regarding “wild-type tethered eel luteinizing hormone (tethered rec-eel LH-wt) (ligand)”, the EC50 of cAMP production (HTRF) in CHO-K1 cells transiently expressing eel LH/CGR; ligand 0-1500 ng/mL, 30 min, room temperature is 0.139 µg/mL.
